From IntAct's records for PubMed 25938661

B1: Hemojuvelin (Homo sapiens), Q6ZVN8-1 (parent)
chain: MGEPGQSPSPRSSHGSPPTLSTLTLLLLLCGHAHSQCKILRCNAEYVSSTLSLRGGGSSGALRGGGGGGRGGGVGSGGLCRALRSYALCTRRTARTCRGDLAFHSAVHGIEDLMIQHNCSRQGPTAPPPPRGPALPGAGSGLPAPDPCDYEGRFSRLHGRPPGFLHCASFGDPHVRSFHHHFHTCRVQGAWPLLDNDFLFVQATSSPMALGANATATRKLTIIFKNMQECIDQKVYQAEVDNLPVAFEDGSINGGDRPGGSSLSIQTANPGNHVEIQAAYIGTTIIIRQTAGQLSFSIKVAEDVAMAFSAEQDLQLCVGGCPPSQRLSRSERNRRGAITIDTARRLCKEGLPVEDAYFHSCVFDVLISGDPNFTVAAQAALEDARAFLPDLEKLHLFPSDAGVPLSSATLLAPLLSGLFVLWLCIQ
partner: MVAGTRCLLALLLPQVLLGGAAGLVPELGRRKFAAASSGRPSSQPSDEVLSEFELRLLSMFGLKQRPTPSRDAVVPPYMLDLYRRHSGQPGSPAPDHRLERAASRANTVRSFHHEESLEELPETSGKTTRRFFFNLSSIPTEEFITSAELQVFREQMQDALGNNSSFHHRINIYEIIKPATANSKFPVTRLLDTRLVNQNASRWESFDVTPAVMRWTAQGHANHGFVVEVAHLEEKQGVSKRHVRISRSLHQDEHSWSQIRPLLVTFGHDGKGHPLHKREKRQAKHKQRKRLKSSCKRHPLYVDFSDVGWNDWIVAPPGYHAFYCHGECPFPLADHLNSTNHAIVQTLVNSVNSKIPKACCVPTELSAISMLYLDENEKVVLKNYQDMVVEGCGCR
B2: Repulsive guidance molecule B (Homo sapiens), Q6NW40 (parent)
chain: MGLRAAPSSAAAAAAEVEQRRSPGLCPPPLELLLLLLFSLGLLHAGDCQQPAQCRIQKCTTDFVSLTSHLNSAVDGFDSEFCKALRAYAGCTQRTSKACRGNLVYHSAVLGISDLMSQRNCSKDGPTSSTNPEVTHDPCNYHSHAGAREHRRGDQNPPSYLFCGLFGDPHLRTFKDNFQTCKVEGAWPLIDNNYLSVQVTNVPVVPGSSATATNKITIIFKAHHECTDQKVYQAVTDDLPAAFVDGTTSGGDSDAKSLRIVERESGHYVEMHARYIGTTVFVRQVGRYLTLAIRMPEDLAMSYEESQDLQLCVNGCPLSERIDDGQGQVSAILGHSLPRTSLVQAWPGYTLETANTQCHEKMPVKDIYFQSCVFDLLTTGDANFTAAAHSALEDVEALHPRKERWHIFPSSGNGTPRGGSDLSVSLGLTCLILIVFL
partner: B1 partner

Variants of: B1
Settings: with bmp2_human BMP2, P12643

| Variant | effect of a mutation on the interaction |
| --- | --- |
| MGEPGQSPSPRSSHGSPPTLSTLTLLLLLCGHAHSQCKILRCNAEYVSSTLSLRGGGSSGALRGGGGGGRGGGVGSGGLCRALRSYALCTRRTARTCRGDPAFHSAVHGIEDLMIQHNCSRQGPTAPPPPRGPALPGAGSGLPAPDPCDYEGRFSRLHGRPPGFLHCASFGDPHVRSFHHHFHTCRVQGAWPLLDNDFLFVQATSSPMALGANATATRKLTIIFKNMQECIDQKVYQAEVDNLPVAFEDGSINGGDRPGGSSLSIQTANPGNHVEIQAAYIGTTIIIRQTAGQLSFSIKVAEDVAMAFSAEQDLQLCVGGCPPSQRLSRSERNRRGAITIDTARRLCKEGLPVEDAYFHSCVFDVLISGDPNFTVAAQAALEDARAFLPDLEKLHLFPSDAGVPLSSATLLAPLLSGLFVLWLCIQ [L101P] | decreasing interaction strength |
| MGEPGQSPSPRSSHGSPPTLSTLTLLLLLCGHAHSQCKILRCNAEYVSSTLSLRGGGSSGALRGGGGGGRGGGVGSGGLCRALRSYALCTRRTARTCRRDLAFHSAVHGIEDLMIQHNCSRQGPTAPPPPRGPALPGAGSGLPAPDPCDYEGRFSRLHGRPPGFLHCASFGDPHVRSFHHHFHTCRVQGAWPLLDNDFLFVQATSSPMALGANATATRKLTIIFKNMQECIDQKVYQAEVDNLPVAFEDGSINGGDRPGGSSLSIQTANPGNHVEIQAAYIGTTIIIRQTAGQLSFSIKVAEDVAMAFSAEQDLQLCVGGCPPSQRLSRSERNRRGAITIDTARRLCKEGLPVEDAYFHSCVFDVLISGDPNFTVAAQAALEDARAFLPDLEKLHLFPSDAGVPLSSATLLAPLLSGLFVLWLCIQ [G99R] | decreasing interaction strength |

Variants of: B2
Settings: with bmp2_human BMP2, P12643

| Variant | effect of a mutation on the interaction |
| --- | --- |
| MGLRAAPSSAAAAAAEVEQRRSPGLCPPPLELLLLLLFSLGLLHAGDCQQPAQCRIQKCTTDFVSLTSHLNSAVDGFDSEFCKALRAYAGCTQRTSKACRGNLVYRSAVLGISDLMSQRNCSKDGPTSSTNPEVTHDPCNYHSHAGAREHRRGDQNPPSYLFCGLFGDPHLRTFKDNFQTCKVEGAWPLIDNNYLSVQVTNVPVVPGSSATATNKITIIFKAHHECTDQKVYQAVTDDLPAAFVDGTTSGGDSDAKSLRIVERESGHYVEMHARYIGTTVFVRQVGRYLTLAIRMPEDLAMSYEESQDLQLCVNGCPLSERIDDGQGQVSAILGHSLPRTSLVQAWPGYTLETANTQCHEKMPVKDIYFQSCVFDLLTTGDANFTAAAHSALEDVEALHPRKERWHIFPSSGNGTPRGGSDLSVSLGLTCLILIVFL [H106R] | decreasing interaction strength |
